Test results taken from US6767887.

Molecular target: human neutral endopeptidase 24.11 (human) (UniProt P08473)
Assay: cell-based or functional assay

Degradation rate (mM/100 ng/ml NEP24.11/min): 0.0586
Substance: GLP-1-(7-36)-NH2 (from UniProt P01275 98-127) (peptide)
